One protein from PMC6365528 can be followed below.

Substrate in data set [1]: CC1=CC[C@@H]2C[C@H]1C2(C)C
In words: cells, lysate or membranes. To be noted: Sf9 microsomes + MPB CPR, 1 mM NADPH, 50 mM potassium phosphate pH 7.4, 30 °C, 1 h.

Substrate in data set [2]: CC1=CC[C@H]2C[C@@H]1C2(C)C
In words: cells, lysate or membranes. To be noted: Sf9 microsomes + MPB CPR, 1 mM NADPH, 50 mM potassium phosphate pH 7.4, 30 °C, 1 h.

B1: CYP6DE1 (Dendroctonus ponderosae) (protein)
chain: MALIIAVGLLLSIILLYCVYSKWKFQHWTRKGVPQLNPRLFFGDTLPLVRGQALKDFHLGLYQKFKSTGAKCVGIYNAHMPELVPIDIILLKDIMVKDYSYFSSHGVFYHEKNVLTSHLFNIEGQSWKERRTKLTPVFTSAKMKQMFDTVASKSPGLVRLVGLSADANKPADIKEILSRFTTDVISGAAFGLECKSLYEPDNMFRAIGKEAFEPNALKLYIEYLFPRQLLGSIGYQTFSSRIVSYFSKVVNETIQYREKNNVQRNDFMQLMLQLKQHGSLVKEDGSVDVKKTETQITDREILSESFLMFLAGHETSSSTSTFALFALSQNQDIQEKVRNEINEVLERHNGKLGYDALMEMEYLDKVIRETLRKYPTVPVIPRRCTKDYQIKNTNTVIDKGTRLYIPVIGVHLDPEYYPDPERFDPERFSPENKAKRPDIAWMPFGEGPRQCLGMRFGLLQSKVALASLLPTFRFTINKAMKPPYIADAGTLVYMFKQDVLLDATRIN
For B1, in data set [1], the Km (usually the concentration of substrate that gives half-maximal velocity) is 292 ± 1 µM; the maximum rate (Vmax) (usually the top rate of the reaction or transport when substrate is in excess) is 0.42 µM/min; the turnover number (kcat) (as a rule, the number of substrate molecules converted per active site and unit of time at saturation) was 0.17 s⁻¹; the kcat/Km (as a rule, the turnover number divided by the Michaelis constant) stood at 576 M⁻¹ s⁻¹. Moreover, in data set [2], the Michaelis constant (Km) amounted to 160 ± 1 µM, the maximal velocity (Vmax) amounted to 0.96 µM/min, the kcat came out at 0.37 s⁻¹ and the catalytic efficiency (kcat/Km) is 2320 M⁻¹ s⁻¹.
